Experimental data taken from patent publication US20230212305A1, “ANTI-ABCG2 ANTIBODIES AND USES THEREOF” (Kenjockety Biotechnology, Inc., priority 2020, published 2023).

How the values were obtained:
ABCG2 [1] = biological target: T1, ABCG2 (Homo sapiens, UniProt Q9UNQ0); format: cell-based
T1 construct: expressed in transfected cells
T1 sequence (Q9UNQ0 1-655): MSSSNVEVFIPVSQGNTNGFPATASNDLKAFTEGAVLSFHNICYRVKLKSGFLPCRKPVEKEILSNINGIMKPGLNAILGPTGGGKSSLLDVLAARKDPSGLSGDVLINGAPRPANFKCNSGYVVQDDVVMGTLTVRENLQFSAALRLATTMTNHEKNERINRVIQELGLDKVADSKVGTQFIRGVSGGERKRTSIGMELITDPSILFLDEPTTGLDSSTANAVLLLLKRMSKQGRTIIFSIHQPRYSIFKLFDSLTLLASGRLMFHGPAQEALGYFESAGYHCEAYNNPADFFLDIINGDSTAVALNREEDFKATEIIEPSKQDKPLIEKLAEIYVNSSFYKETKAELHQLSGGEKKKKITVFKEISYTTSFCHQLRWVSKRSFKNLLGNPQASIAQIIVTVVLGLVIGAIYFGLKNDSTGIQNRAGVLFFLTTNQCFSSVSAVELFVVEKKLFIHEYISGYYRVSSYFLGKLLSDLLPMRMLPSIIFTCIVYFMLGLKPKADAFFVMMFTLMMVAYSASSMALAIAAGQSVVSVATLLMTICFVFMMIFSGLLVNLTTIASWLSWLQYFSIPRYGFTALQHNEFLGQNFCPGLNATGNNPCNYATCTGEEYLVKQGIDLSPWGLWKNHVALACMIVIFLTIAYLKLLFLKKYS
Protocol: 293T_ABCG2_OX cells were washed several times and aliquoted into 96-well plates as 50 μl aliquots/well at a cell density of 2×10e6 cells per ml in phenol red-free DMEM. Cells were mixed with 50 μl antibodies or the small molecule inhibitors of ABCG2:-fumitremorgin C (FTC), or its tetracyclic analogue K0143, with a final concentration of 1 μM. Cells were then incubated in the presence of 2.5 μM Mitoxantrone 1 h at 37° C. The cells were subsequently washed twice and finally resuspended in […] PBS. Mitoxantrone fluorescence was measured using excitation at 635 nm and emission at 647 nm. Protocols was measuring efflux blockade are found in Szabo E, et al., PLoS One. 2018 Jan. 17; 13(1):e0190629; Deeken J F, et al., Mol Pharmacol. 2009 November; 76(5):946-56).

cynomolgus ABCG2 = test: Flow cytometry binding to 293T cells overexpressing cynomolgus ABCG2; set-up: key to Cynomolgus ABCG2 binding: binding=“+”; non-significant binding=“−”
cynomolgus ABCG2, sequence (as listed by the source): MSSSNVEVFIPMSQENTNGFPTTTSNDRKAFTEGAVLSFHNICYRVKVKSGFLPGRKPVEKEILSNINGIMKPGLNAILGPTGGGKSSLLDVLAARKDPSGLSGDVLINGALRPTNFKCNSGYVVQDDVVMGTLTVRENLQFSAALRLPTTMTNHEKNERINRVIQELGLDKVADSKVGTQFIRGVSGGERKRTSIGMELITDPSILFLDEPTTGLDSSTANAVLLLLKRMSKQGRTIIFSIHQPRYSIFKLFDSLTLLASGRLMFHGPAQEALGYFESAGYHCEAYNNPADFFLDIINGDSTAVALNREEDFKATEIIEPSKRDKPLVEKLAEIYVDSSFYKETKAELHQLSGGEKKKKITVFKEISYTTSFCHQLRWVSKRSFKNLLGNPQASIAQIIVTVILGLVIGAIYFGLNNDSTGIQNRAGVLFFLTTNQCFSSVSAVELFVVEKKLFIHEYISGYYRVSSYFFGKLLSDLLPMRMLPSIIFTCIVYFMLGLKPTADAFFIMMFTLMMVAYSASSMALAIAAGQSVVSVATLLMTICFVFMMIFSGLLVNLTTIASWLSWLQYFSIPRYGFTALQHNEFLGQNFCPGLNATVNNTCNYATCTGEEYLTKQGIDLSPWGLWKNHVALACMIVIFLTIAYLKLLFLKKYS
Protocol: (§1) Cell Binding Assays. Antibody binding to cells was evaluated by flow cytometry. 293T cells stably transfected to express human or cynomolgus ABCG2 (293T_ABCG2_OX) were washed once in flow cytometry buffer (PBS+2% FBS+0.02% sodium azide), resuspended at 2×10^6 cells/mL in flow cytometry buffer, and dispensed into 96-well microtiter plates at 0.1 mL/well. Recombinant antibodies were added to cells at 5 ug/mL for initial binding confirmation, or serially diluted from 100 ug/mL in flow cytometry buffer. After incubating cells on ice for 30 min, cells were washed twice with flow cytometry buffer. Bound antibody was detected with PE-labeled F(ab′)2 fragment goat anti-human IgG (Jackson ImmunoResearch) and evaluated on an Attune NxT flow cytometer. EC50 is calculated to be the concentration of antibody that gives half maximal response.

ABCG2 [2] = biological target: T1, ABCG2; test: Flow cytometry binding to 293T cells overexpressing human ABCG2 (293T_ABCG2_OX); set-up: key to Binding by FACS: binding=“+”; non-significant binding=“−”
Protocol: as §1

293T_ABCG2_OX cells = format: cell-based, human; conditions: cell killing by topotecan on 293T_ABCG2_OX cells; viability relative to IgG control
Protocol: Cytotoxicity Assays. The effect of antibodies on topotecan cytotoxicity was evaluated on 293T_ABCG2_OX cells, 293T cells stably transfected to express ABCG2. Cells were plated in 0.05 mL of Assay Media (DMEM+10% FBS) at 5000 cells/well in white, flat bottom 96-well tissue culture plates. Topotecan was prepared at 2× final assay concentration by serial dilution from 200 uM in assay media containing test antibodies or control antibodies at 100 ug/mL (2× final concentration), or Fumitremorgin C, a small molecule ABCG2 inhibitor at 20 uM (2× final concentration). An equivalent volume (0.05 mL) of the topotecan/antibody mixture was added to the 293T_ABCG2_OX cells in 96-well plates. The plates were then incubated at 37° C., in 5% CO2. After 72-96 hr plates were equilibrated to room temperature and cell viability assessed using Promega® CellTiter-Glo® Luminescent Cell Viability Assay according to the manufacturer's recommended protocol. Luminescence was measured on a Molecular Devices® FlexStation® 3 Multi-Mode Microplate Reader and data analyzed using GraphPad Prism 8.0 software. Half maximal inhibitory concentration (1050) is the concentration of drug (topotecan or other chemotherapy cytotoxic agent) where the response (cell growth) is reduced by 50%.

Which “Block Efflux” value (ABCG2 [1]) does the source give for “5D3: anti-Human ABCG2 Antibody (Clone 5D3) from R&D Systems [Antibody 5D3, reference compound]” here?
Its value is “+”.

And the “Cynomolgus ABCG2 binding” value (cynomolgus ABCG2)?
Its value is “+”.

What about the “binding to cynomolgus ABCG2 (cG2) expressed by 3T3 cells” value (cynomolgus ABCG2; FIG. 1B, 3T3 cells stably transfected with cABCG2) of the same substance?
The value was “binds”.

And the “Binding by FACS” value (ABCG2 [2]; 293T_ABCG2_OX cells)?
Its value is “+”.

And the “binding to human ABCG2 expressed on 3T3 and C6 cell lines” value (ABCG2 [2]; FIG. 1B, stably transfected cells)?
Its value is “binds”.

And the Killing (293T_ABCG2_OX cells)?
Its Killing is “++ (viability ≥10% and <30% of IgG control)”.
